Measurements as given in paper PMC5482573.

Target: COPI coat leaf (one coatomer complex with two Arf1 molecules) assembled on vesicle membranes (M. musculus | S. cerevisiae) (UniProt Q8CIE6)
Assay: cryo-EM structure; COPI coated vesicles with GTPγS incubated 15–20 min with a 10 molar excess of ArfGAP2; subtomogram averaging, difference map and classification; class with ArfGAP2 at 10.1 Å

R. norvegicus ArfGAP2, full-length, N-terminally His-tagged, sequence (Q3MID3 whole entry): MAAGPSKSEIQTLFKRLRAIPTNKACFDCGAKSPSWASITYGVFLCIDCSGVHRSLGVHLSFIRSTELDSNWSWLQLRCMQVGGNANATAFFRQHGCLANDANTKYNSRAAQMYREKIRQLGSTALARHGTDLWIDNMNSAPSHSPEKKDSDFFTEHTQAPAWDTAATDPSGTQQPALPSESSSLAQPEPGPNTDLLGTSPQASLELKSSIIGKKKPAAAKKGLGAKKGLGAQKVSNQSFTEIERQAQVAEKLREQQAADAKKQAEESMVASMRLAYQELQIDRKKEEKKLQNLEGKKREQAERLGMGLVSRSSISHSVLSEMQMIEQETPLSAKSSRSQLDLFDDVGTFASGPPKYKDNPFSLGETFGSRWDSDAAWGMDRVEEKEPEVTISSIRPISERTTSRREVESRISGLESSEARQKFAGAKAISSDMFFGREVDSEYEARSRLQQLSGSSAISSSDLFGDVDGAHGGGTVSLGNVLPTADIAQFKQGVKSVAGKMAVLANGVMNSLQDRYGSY

- share of the leaves in the class with bound ArfGAP2: 65%
Substance: R. norvegicus ArfGAP2, full-length, N-terminally His-tagged (from UniProt Q3MID3 1-520) (enzyme)
